Source: patent US12618845B2, “Methods and compositions for protein sequencing” (Quantum-Si Incorporated, priority 2018, dated 2026)
Where a chain is given by its changes, count along the chain named. Names may count otherwise.

B1: P. horikoshii Tet (protein)
chain: MEVRNMVDYELLKKVVEAPGVSGYEFLGIRDVVIEEIKDYVDEVKVDKLGNVIAHKKGEGPKVMIAAHMDQIGLMVTHIEKNGFLRVAPIGGVDPKTLIAQRFKVWIDKGKFIYGVGASVPPHIQKPEDRKKAPDWDQIFIDIGAESKEEAEDMGVKIGTVITWDGRLERLGKHRFVSIAFDDRIAVYTILEVAKQLKDAKADVYFVATVQEEVGLRGARTSAFGIEPDYGFAIDVTIAADIPGTPEHKQVTHLGKGTAIKIMDRSVICHPTIVRWLEELAKKHEIPYQLEILLGGGTDAGAIHLTKAGVPTGALSVPARYIHSNTEVVDERDVDATVELMTKALENIHELKI
B2: P. falciparum M1 (protein, listed as Plasmodium falciparum)
chain: PKIHYRKDYKPSGFIINQVTLNINIHDQETIVRSVLDMDISKHNVGEDLVFDGVGLKINEISINNKKLVEGEEYTYDNEFLTIFSKFVPKSKFAFSSEVIIHPETNYALTGLYKSKNIIVSQCEATGFRRITFFIDRPDMMAKYDVTVTADKEKYPVLLSNGDKVNEFEIPGGRHGARFNDPPLKPCYLFAVVAGDLKHLSATYITKYTKKKVELYVFSEEKYVSKLQWALECLKKSMAFDEDYFGLEYDLSRLNLVAVSDFNVGAMENKGLNIFNANSLLASKKNSIDFSYARILTVVGHEYFHQYTGNRVTLRDWFQLTLKEGLTVHRENLFSEEMTKTVTTRLSHVDLLRSVQFLEDSSPLSHPIRPESYVSMENFYTTTVYDKGSEVMRMYLTILGEEYYKKGFDIYIKKNDGNTATCEDFNYAMEQAYKMKKADNSANLNQYLLWFSQSGTPHVSFKYNYDAEKKQYSIHVNQYTKPDENQKEKKPLFIPISVGLINPENGKEMISQTTLELTKESDTFVFNNIAVKPIPSLFRGFSAPVYIEDQLTDEERILLLKYDSDAFVRYNSCTNIYMKQILMNYNEFLKAKNEKLESFQLTPVNAQFIDAIKYLLEDPHADAGFKSYIVSLPQDRYIINFVSNLDTDVLADTKEYIYKQIGDKLNDVYYKMFKSLEAKADDLTYFNDESHVDFDQMNMRTLRNTLLSLLSKAQYPNILNEIIEHSKSPYPSNWLTSLSVSAYFDKYFELYDKTYKLSKDDELLLQEWLKTVSRSDRKDIYEILKKLENEVLKDSKNPNDIRAVYLPFTNNLRRFHDISGKGYKLIAEVITKTDKFNPMVATQLCEPFKLWNKLDTKRQELMLNEMNTMLQEPQISNNLKEYLLRLTNK
B3: Saccharomyces cerevisiae UBR1: amino acid recognition protein, SEQ ID NO: 18 (protein, listed as Saccharomyces cerevisiae)
chain: MGSVHKHTGRNCGRKFKIGEPLYRCHECGCDDTCVLCIHCFNPKDHVNHHVCTDICTEFTSGICDCGDEEAWNSPLHCKAEEQ
B4: Escherichia coli leucyl/phenylalanyl-tRNA-protein transferase: amino acid recognition protein, SEQ ID NO: 16 (protein, listed as Escherichia coli)
chain: MRLVQLSRHSIAFPSPEGALREPNGLLALGGDLSPARLLMAYQRGIFPWFSPGDPILWWSPDPRAVLWPESLHISRSMKRFHKRSPYRVTMNYAFGQVIEGCASDREEGTWITRGVVEAYHRLHELGHAHSIEVWREDELVGGMYGVAQGTLFCGESMFSRMENASKTALLVFCEEFIGHGGKLIDCQVLNDHTASLGACEIPRRDYLNYLNQMRLGRLPNNFWVPRCLFSPQELE
B5: Plasmodium falciparum ClpS: amino acid recognition protein, SEQ ID NO: 15 (protein, listed as Plasmodium falciparum)
chain: MFKDLKPFFLCIILLLLLIYKCTHSYNIKNKNCPLNFMNSCVRINNVNKNTNISFPKELQKRPSLVYSQKNFNLEKIKKLRNVIKEIKKDNIKEADEHEKKEREKETSAWKVILYNDDIHNFTYVTDVIVKVVGQISKAKAHTITVEAHSTGQALILSTWKSKAEKYCQELQQNGLTVSIIHESQLKDKQKK
B6: Agrobacterium tumifaciens ClpS2: amino acid recognition protein, SEQ ID NO: 2 (protein, listed as Agrobacterium tumifaciens)
chain: MSDSPVDLKPKPKVKPKLERPKLYKVMLLNDDYTPREFVTVVLKAVFRMSEDTGRRVMMTAHRFGSAVVVVCERDIAETKAKEATDLGKEAGFPLMFTTEPEE
B7: Agrobacterium tumifaciens ClpS2 C71S: amino acid recognition protein, SEQ ID NO: 3 (protein, listed as Agrobacterium tumifaciens)
chain: B6 chain with C72S
B8: Agrobacterium tumifaciens ClpS2 variant 1 C72S: amino acid recognition protein, SEQ ID NO: 5 (protein, listed as Agrobacterium tumifaciens)
chain: B6 chain with R36M, E37S, C72S
B9: Agrobacterium tumifaciens ClpS1 C7S: amino acid recognition protein, SEQ ID NO: 6 (protein, listed as Agrobacterium tumifaciens)
chain: MIAEPISMQGEGDGEDGGTNRGTSVITRVKPKTKRPNLYRVLLLNDDYTPMEFVIHILERFFQKDREAATRIMLHVHQHGVGECGVFTYEVAETKVSQVMDFARQHQHPLQCVMEKK
B10: Agrobacterium tumifaciens ClpS1 C7S C84S C112S: amino acid recognition protein, SEQ ID NO: 7 (protein, listed as Agrobacterium tumifaciens)
chain: B9 chain with C84S, C112S
B11: Escherichia coli ClpS: amino acid recognition protein, SEQ ID NO: 13 (protein, listed as Escherichia coli)
chain: MGKTNDWLDFDQLAEEKVRDALKPPSMYKVILVNDDYTPMEFVIDVLQKFFSYDVERATQLMLAVHYQGKAICGVFTAEVAETKVAMVNKYARENEHPLLCTLEKA
B12: Escherichia coli ClpS M40A: amino acid recognition protein, SEQ ID NO: 14 (protein, listed as Escherichia coli)
chain: B11 chain with M40A
B13: Synechococcus elongatus ClpS1: amino acid recognition protein, SEQ ID NO: 10 (protein, listed as Synechococcus elongatus)
chain: MAVETIQKPETTTKRKIAPRYRVLLHNDDFNPMEYVVMVLMQTVPSLTQPQAVDIMMEAHTNGTGLVITCDIEPAEFYCEQLKSHGLSSSIEPDD
B14: UBR-box domain from Homo sapiens UBR1: amino acid recognition protein, SEQ ID NO: 32 (protein, listed as Homo sapiens)
chain: MGPLGSLCGRVFKSGETTYSCRDCAIDPTCVLCMDCFQDSVHKNHRYKMHTSTGGGFCDCGDTEAWKTGPFCVNHEP
B15: H. sapiens Fyn SH2 domain: amino acid recognition protein, SEQ ID NO: 22 (protein, listed as Homo sapiens)
chain: MGAMDSIQAEEWYFGKLGRKDAERQLLSFGNPRGTFLIRESETTKGAYSLSIRDWDDMKGDHVKHYKIRKLDNGGYYITTRAQFETLQQLVQHYSERAAGLSSRLVVPSHK
B16: UBR-box domain from Homo sapiens UBR2: amino acid recognition protein, SEQ ID NO: 33 (protein, listed as Homo sapiens)
chain: MGPLGSLCGRVFKVGEPTYSCRDCAVDPTCVLCMECFLGSIHRDHRYRMTTSGGGGFCDCGDTEAWKEGPYCQKHE
B17: Saccharomyces cerevisiae GID10: amino acid recognition protein, SEQ ID NO: 31 (protein, listed as Saccharomyces cerevisiae)
chain: MTSLNIMGRKFILERAKRNDNIEEIYTSAYVSLPSSTDTRLPHFKAKEEDCDVYEEGTNLVGKNAKYTYRSLGRHLDFLRPGLRFGGSQSSKYTYYTVEVKIDTVNLPLYKDSRSLDPHVTGTFTIKNLTPVLDKVVTLFEGYVINYNQFPLCSLHWPAEETLDPYMAQRESDCSHWKRFGHFGSDNWSLTERNFGQYNHESAEFMNQRYIYLKWKERFLLDDEEQENQMLDDNHHLEGASFEGFYYVCLDQLTGSVEGYYYHPACELFQKLELVPTNCDALNTYSSGFEIA

Tested on: peptide substrates
Assay type: biochemical
Conditions: substrate AAPAAP{LYSN3}NH2 (SEQ ID NO: 90); 1 mM peptide, 1 mM enzyme, 2.5 mM ZnCl2, 25 mM Tris pH 8.0; 70° C./1 hr
With B1 the “HPLC Assay Conv” value was 100%.

Same assay, conditions: substrate DDMDDM{LYSN3}NH2 (SEQ ID NO: 72); 1 mM peptide, 1 mM enzyme, 2.5 mM ZnCl2, 25 mM Tris pH 8.0; 70° C./1 hr
In the case of B1, the “HPLC Assay Conv” value is reported as 60%.

Same assay, conditions: substrate FFPFFP{LYSN3}NH2 (SEQ ID NO: 94); 1 mM peptide, 1 mM enzyme, 2.5 mM ZnCl2, 25 mM Tris pH 8.0; 70° C./1 hr
In the case of B1, the “HPLC Assay Conv” value is reported as 100%.

Same assay, conditions: substrate MetTyr; 1 mM peptide, 1 mM enzyme, 2.5 mM ZnCl2 25 mM Tris pH 8.0; 30° C./1 hr
With B2 the “HPLC Assay Conv” value was 7%.

Same assay, conditions: substrate YYPYYP{LYSN3}NH2 (SEQ ID NO: 92); 1 mM peptide, 1 mM enzyme, 2.5 mM ZnCl2, 25 mM Tris pH 8.0; 70° C./1 hr
With B1 the “HPLC Assay Conv” value was 100%.

Tested on: amino acid at a terminal position of a polypeptide
Conditions: amino acid identity at a terminal position of a polypeptide; phospho-Y also at an internal position; cited from earlier work
For B3, the “Binding Pref.” value is given as “K, R, H”.
In the case of B4, the “Binding Pref.” value is listed as “K, R”.
In the case of B5, the “Binding Pref.” value is given as “F, W, Y, L,”.
In the case of B6, the “Binding Pref.” value is given as “F, W, Y”.
For B7, the “Binding Pref.” value is listed as “F, W, Y”.
For B8, the “Binding Pref.” value is listed as “F, W, Y”.
For B9, the “Binding Pref.” value is listed as “F, W, Y, L”.
In the case of B10, the “Binding Pref.” value is listed as “F, W, Y, L”.
In the case of B11, the “Binding Pref.” value is listed as “F, W, Y, L”.
In the case of B12, the “Binding Pref.” value is listed as “F, W, Y, L”.
In the case of B13, the “Binding Pref.” value is given as “F, W, Y”.
For B14, the “Binding Pref.” value is given as “K, R, H”.
In the case of B15, the “Binding Pref.” value is listed as “phospho-Y”.
In the case of B16, the “Binding Pref.” value is listed as “K, R, H”.
For B17, the “Binding Pref.” value is listed as “P, M, V”.
